Like-named read-outs stand apart in the source and are kept apart here.
Experiments:
[1] = target: T1, recombinant human extracellular domain of EGFR fused to an IgG1 Fc (human, UniProt P00533 25-645); test: SPR (ProteOn), protocol of Example 3, recombinant EGFR extracellular domain
T1 construct: Bought from R&D Systems; The residues are stated for the panning reagent; also called EGFR-Fc; EGF R-Fc; not shown: IgG1 Fc
Protocol: All 6 analyte channels were used for the FN3 domains to maximize screening throughput. The dissociation phase was monitored for 10 minutes at a flow rate of 100 μL/min. The inter-spot binding signals were used as references to monitor non-specific binding between analytes and the immobilized IgG surface, and were subtracted from all binding responses. The processed binding data were locally fit to a 1:1 simple Langmuir binding model to extract the koff for each FN3 domain binding to captured EGFR-Fc.
Binding affinity of selected EGFR-binding FN3 domains to recombinant EGFR extracellular domain was further characterized by surface Plasmon resonance methods using a Proteon Instrument (BioRad). The assay set-up (chip preparation, EGFR-Fc capture) was similar to that described above for off-rate analysis. Selected EGFR binding FN3 domains were tested at 1 μM concentration in 3-fold dilution series in the horizontal orientation. A buffer sample was also injected to monitor the baseline stability. […] Two sets of reference data were subtracted from the response data: 1) the inter-spot signals to correct for the non-specific interactions between the EGFR-binding FN3 domain and the immobilized IgG surface; 2) the buffer channel signals to correct for baseline drifting due to the dissociation of captured EGFR-Fc surface over time. The processed binding data at all concentrations for each FN3 domain were globally fit to a 1:1 simple Langmuir binding model to extract estimates of the kinetic (kₘ, koff) and affinity (KD) constants.

[2] = target: T2, Recombinant human c-Met Fc chimera (human, UniProt P08581 16-932); test: SPR (ProteOn), protocol of Example 3, recombinant c-Met extracellular domain
T2 construct: not shown: Fc part

human EGFR on cells [3] = target: T3, human EGFR on cells (human, UniProt P00533 25-1210); test: cell-based or functional assay
human c-Met on cells [4] = target: T4, human c-Met on cells (human, UniProt P08581 25-1390); test: cell-based or functional assay
human EGFR on cells [5] = target: T3, human EGFR on cells; test: A431 cell EGF competition assay, competitor biotinylated EGF
[6] = target: T1, recombinant human extracellular domain …; test: SPR (ProteOn), EGFR-Fc captured on anti-human Fc IgG, FN3 domain as analyte
Protocol: Select EGFR-binding FN3 domains were screened to identify those with slow off-rates (koff) in binding to EGFR-Fc on a ProteOn XPR-36 instrument (Bio-Rad) to facilitate selection of high affinity binders. Goat anti-human Fc IgG (R&D systems), at a concentration of 5 μg/mL, was directly immobilized via amine coupling (at pH 5.0) on all 6 ligand channels in horizontal orientation on the chip with a flow rate of 30 μL/min in PBS containing 0.005% Tween-20. The immobilization densities averaged about 1500 Response Units (RU) with less than 5% variation among different channels. EGFR-Fc was captured on the anti-human Fc IgG surface to a density around 600 RU in vertical ligand orientation. All tested FN3 domains were normalized to a concentration of […] and tested for their binding in horizontal orientation. All 6 analyte channels were used for the FN3 domains to maximize screening throughput. The dissociation phase was monitored for 10 minutes at a flow rate of 100 μL/min. The inter-spot binding signals were used as references to monitor non-specific binding between analytes and the immobilized IgG surface, and were subtracted from all binding responses. The processed binding data were locally fit to a 1:1 simple Langmuir binding model to extract the koff for each FN3 domain binding to captured EGFR-Fc.
Binding affinity of selected EGFR-binding FN3 domains to recombinant EGFR extracellular domain was further characterized by surface Plasmon resonance methods using a Proteon Instrument (BioRad). The assay set-up (chip preparation, EGFR-Fc capture) was similar to that described above for off-rate analysis. Selected EGFR binding FN3 domains were tested at 1 μM concentration in 3-fold dilution series in the horizontal orientation. A buffer sample was also injected to monitor the baseline stability.

human EGFR on cells [7] = target: T3, human EGFR on cells; test: A431 cell binding assay, anti-penta-His-Alexa488 detection
human EGFR on cells [8] = target: T3, human EGFR on cells; test: cell-based or functional assay; remark: listed apart in the source
human c-Met on cells [9] = target: T4, human c-Met on cells; test: H441 cell binding assay, anti-His detection
Protocol: Purified FN3 domains (50 μL/well; 0 to 1000 nM) were added to the cells for 1 hour at 4° C. in duplicate plates. […] Cells were incubated with biotinylated-anti HIS antibody (diluted 1:160 in FACS stain buffer, 50 μL/well, R&D Systems, cat #BAM050) for 30 minutes at 4° C. […] Cells were washed three times with FACS stain buffer (150 μL/well) and left in FACS stain buffer (50 μL/well).

[10] = target: T2, Recombinant human c-Met Fc chimera; test: SPR (ProteOn), c-Met-Fc captured on anti-human Fc IgG, FN3 domain as analyte
human c-Met on cells [11] = target: T4, human c-Met on cells; test: cell-based or functional assay; remark: listed apart in the source
[12] = target: T2, Recombinant human c-Met Fc chimera; test: HGF competition assay on coated c-Met-Fc, competitor biotinylated HGF
human c-Met on cells [13] = target: T4, human c-Met on cells; test: cell-based or functional assay; remark: listed apart in the source

B1: ECB96 (designed binder)
chain: MLPAPKNLVVSEVTEDSARLSWDDPWAFYESFLIQYQESEKVGEAIVLTVPGSERSYDLTGLKPGTEYTVSIYGVHNVYKDTNIRGLPLSAIFTTAPAPAPAPAPLPAPKNLVVSRVTEDSARLSWTAPDAAFDSFWIRYFEFVSKGDAIVLTVPGSERSYDLTGLKPGTEYVVNILGVKGGSISPPLSAIFTT
notes: not shown: C-terminal poly-histidine tag
[1]
  Kd: 1.6 nM
[2]
  Kd: 22.1 nM
Human EGFR on cells [3]
  H292 pEGFR inhibition in H292 cells (IC50): 24.7 nM
Human c-Met on cells [4]
  pMet inhibition in H441 cells (IC50): 835 nM

B2: ECB107 (designed binder)
chain: MLPAPKNLVVSEVTEDSARLSWDDPHAFYESFLIQYQESEKVGEAIVLTVPGSERSYDLTGLKPGTEYTVSIYGVHNVYKDTNIRGLPLSAIFTTAPAPAPAPAPLPAPKNLVVSRVTEDSARLSWTAPDAAFDSFWIRYFEFVGSGEAIVLTVPGSERSYDLTGLKPGTEYVVNILGVKGGSISPPLSAIFTT
notes: as for B1
[1]
  Kd: 16.9 nM
[2]
  Kd: 9 nM
Human EGFR on cells [3]
  H292 pEGFR inhibition in H292 cells (IC50): 812 nM
Human c-Met on cells [4]
  pMet inhibition in H441 cells (IC50): 29.9 nM

B3: ECB108 (designed binder)
chain: MLPAPKNLVVSEVTEDSARLSWDDPHAFYESFLIQYQESEKVGEAIVLTVPGSERSYDLTGLKPGTEYTVSIYGVHNVYKDTNIRGLPLSAIFTTAPAPAPAPAPLPAPKNLVVSRVTEDSARLSWTAPDAAFDSFWIRYFEFVSKGDAIVLTVPGSERSYDLTGLKPGTEYVVNILGVKGGSISPPLSAIFTT
notes: as for B1
[1]
  Kd: 15.3 nM
[2]
  Kd: 25.5 nM
Human EGFR on cells [3]
  H292 pEGFR inhibition in H292 cells (IC50): 814 nM
Human c-Met on cells [4]
  pMet inhibition in H441 cells (IC50): 126 nM

B4: ECB106 (designed binder)
chain: MLPAPKNLVVSEVTEDSARLSWDDPHAFYESFLIQYQESEKVGEAIVLTVPGSERSYDLTGLKPGTEYTVSIYGVHNVYKDTNIRGLPLSAIFTTAPAPAPAPAPLPAPKNLVVSRVTEDSARLSWTAPDAAFDSFWIRYFEFLGSGEAIVLTVPGSERSYDLTGLKPGTEYVVNILGVKGGKISPPLSAIFTT
notes: as for B1
[1]
  Kd: 16.7 nM
[2]
  Kd: 5.1 nM
Human EGFR on cells [3]
  H292 pEGFR inhibition in H292 cells (IC50): 367 nM
Human c-Met on cells [4]
  pMet inhibition in H441 cells (IC50): 53.3 nM

B5: ECB97 (designed binder)
chain: MLPAPKNLVVSEVTEDSARLSWDDPWAFYESFLIQYQESEKVGEAIVLTVPGSERSYDLTGLKPGTEYTVSIYGVHNVYKDTNIRGLPLSAIFTTAPAPAPAPAPLPAPKNLVVSRVTEDSARLSWTAPDAAFDSFWIRYFEFLGSGEAIVLTVPGSERSYDLTGLKPGTEYVVNILSVKGGSISPPLSAIFTT
notes: as for B1
[1]
  Kd: 1.3 nM
[2]
  Kd: 1.7 nM
Human EGFR on cells [3]
  H292 pEGFR inhibition in H292 cells (IC50): 16.6 nM
Human c-Met on cells [4]
  pMet inhibition in H441 cells (IC50): 24.2 nM

B6: ECB109 (designed binder)
chain: MLPAPKNLVVSEVTEDSARLSWDDPHAFYESFLIQYQESEKVGEAIVLTVPGSERSYDLTGLKPGTEYTVSIYGVHNVYKDTNIRGLPLSAIFTTAPAPAPAPAPLPAPKNLVVSRVTEDSARLSWTAPDAAFDSFWIRYFEFLGSGEAIVLTVPGSERSYDLTGLKPGTEYVVNILSVKGGSISPPLSAIFTT
notes: as for B1
[1]
  Kd: 17.3 nM
[2]
  Kd: 2.1 nM
Human EGFR on cells [3]
  H292 pEGFR inhibition in H292 cells (IC50): 432 nM
Human c-Met on cells [4]
  pMet inhibition in H441 cells (IC50): 26 nM

B7: P53A1R5-17 (designed binder, not shown: small tags and cut ends)
chain: LPAPKNLVVSEVTEDSLRLSWADPHGFYDSFLIQYQESEKVGEAINLTVPGSERSYDLTGLKPGTEYTVSIYGVHNVYKDTNMRGLPLSAEFTT
Human EGFR on cells [5]
  IC50: 9.8 nM
[6]
  Kd: 1.89 nM
Human EGFR on cells [7]
  EC50: 4 nM
Human EGFR on cells [8]
  NCI-H292 Growth IC50: 86 nM
  NCI-H322 Growth IC50: 65 nM
  Phospho-EGFR IC50 (A431 cells): > 2500 nM

B8: P54AR4-73 (designed binder, not shown: small tags and cut ends)
chain: LPAPKNLVVSEVTEDSLRLSWTWPYADLDSFLIQYQESEKVGEAINLTVPGSERSYDLTGLKPGTEYTVSIYGVHNVYKDTNMRGLPLSAEFTT
Human EGFR on cells [5]
  IC50: 4.6 nM
[6]
  Kd: 0.197 nM
Human EGFR on cells [7]
  EC50: 9.4 nM
Human EGFR on cells [8]
  NCI-H292 Growth IC50: 83 nM
  NCI-H322 Growth IC50: 73 nM
  Phospho-EGFR IC50 (A431 cells): 141 nM

B9: P54AR4-83 (designed binder, not shown: small tags and cut ends)
chain: LPAPKNLVVSEVTEDSLRLSWDDPWAFYESFLIQYQESEKVGEAINLTVPGSERSYDLTGLKPGTEYTVSIYGVHNVYKDTNMRGLPLSAEFTT
Human EGFR on cells [5]
  IC50: 1.8 nM
[6]
  Kd: 0.255 nM
Human EGFR on cells [7]
  EC50: 2.2 nM
Human EGFR on cells [8]
  NCI-H292 Growth IC50: 5.9 nM
  NCI-H322 Growth IC50: 9.2 nM
  Phospho-EGFR IC50 (A431 cells): 18 nM

B10: P54AR4-48 (designed binder, not shown: small tags and cut ends)
chain: LPAPKNLVVSEVTEDSLRLSWDDPRGFYESFLIQYQESEKVGEAINLTVPGSERSYDLTGLKPGTEYTVSIYGVHNVYKDTNMRGLPLSAEFTT
Human EGFR on cells [5]
  IC50: 9.8 nM
[6]
  Kd: 7.78 nM
Human EGFR on cells [7]
  EC50: 12 nM
Human EGFR on cells [8]
  Phospho-EGFR IC50 (A431 cells): 170 nM

B11: P54AR4-74 (designed binder, not shown: small tags and cut ends)
chain: LPAPKNLVVSEVTEDSLRLSWGYNGDHFDSFLIQYQESEKVGEAINLTVPGSERSYDLTGLKPGTEYTVSIYGVHNVYKDTNMRGLPLSAEFTT
Human EGFR on cells [7]
  EC50: 77 nM

B12: P54AR4-17 (designed binder, not shown: small tags and cut ends)
chain: LPAPKNLVVSEVTEDSLRLSWTYDRDGYDSFLIQYQESEKVGEAINLTVPGSERSYDLTGLKPGTEYTVSIYGVHNVYKDTNMRGLPLSAEFTT
Human EGFR on cells [5]
  IC50: 21 nM
[6]
  Kd: 9.62 nM
Human EGFR on cells [7]
  EC50: 16 nM
Human EGFR on cells [8]
  Phospho-EGFR IC50 (A431 cells): 184 nM

B13: P54AR4-81 (designed binder, not shown: small tags and cut ends)
chain: LPAPKNLVVSEVTEDSLRLSWDYDLGVYFDSFLIQYQESEKVGEAINLTVPGSERSYDLTGLKPGTEYTVSIYGVHNVYKDTNMRGLPLSAEFTT
Human EGFR on cells [5]
  IC50: 121 nM
Human EGFR on cells [7]
  EC50: 84 nM

B14: P114AR5P74-A5 (designed binder, not shown: small tags and cut ends)
chain: LPAPKNLVVSRVTEDSARLSWTAPDAAFDSFWIRYDEVVVGGEAIVLTVPGSERSYDLTGLKPGTEYYVNILGVKGGSISVPLSAIFTT
Human c-Met on cells [9]
  EC50: 18.7 nM
[10]
  Kd: 10.1 nM
Human c-Met on cells [11]
  Inhibition of Proliferation of U87-MG cells (IC50): 464 nM
  pMet inhibition in H441 cells (IC50): 1.08 µM
[12]
  IC50: 5.2 nM
Human c-Met on cells [13]
  inhibition of c-Met phosphorylation in HGF-stimulated NCI-H292 cells (IC50): 610 nM
